Data reported in article PMC2190117.
Values joined by “and” are separate entries in the source; they are usually repeats but may differ in a detail not shown here. Equal entries are not always repeated. Where two headings read alike, the source gives them in different places.

What was measured:
[1] = target: human C3b (human) (UniProt P01024); test: immunostaining of cells or tissue
[2] = target: human C3b (human) (UniProt P01024); test: immunostaining of cells or tissue; remark: listed apart in the source
[3] = target: human C3b (human) (UniProt P01024); test: immunostaining of cells or tissue; remark: listed apart in the source
[4] = target: human C3b (human) (UniProt P01024); test: immunostaining of cells or tissue; remark: listed apart in the source
[5] = target: human C3b (human) (UniProt P01024); test: immunostaining of cells or tissue; remark: listed apart in the source
[6] = target: human C3b (human) (UniProt P01024); test: immunostaining of cells or tissue; remark: listed apart in the source
[7] = target: C3-C3b receptor (human (endogenous in Raji, Daudi and HPL)); test: rosette formation
[8] = target: C3-C3b receptor (human (endogenous in Raji, Daudi and HPL)); test: immunostaining of cells or tissue
[9] = target: C3-C3b receptor (human (endogenous in Raji, Daudi and HPL)); test: immunostaining of cells or tissue; remark: listed apart in the source

Chain of UniProt P01024 (P01024 23-667, chain 1 of 2): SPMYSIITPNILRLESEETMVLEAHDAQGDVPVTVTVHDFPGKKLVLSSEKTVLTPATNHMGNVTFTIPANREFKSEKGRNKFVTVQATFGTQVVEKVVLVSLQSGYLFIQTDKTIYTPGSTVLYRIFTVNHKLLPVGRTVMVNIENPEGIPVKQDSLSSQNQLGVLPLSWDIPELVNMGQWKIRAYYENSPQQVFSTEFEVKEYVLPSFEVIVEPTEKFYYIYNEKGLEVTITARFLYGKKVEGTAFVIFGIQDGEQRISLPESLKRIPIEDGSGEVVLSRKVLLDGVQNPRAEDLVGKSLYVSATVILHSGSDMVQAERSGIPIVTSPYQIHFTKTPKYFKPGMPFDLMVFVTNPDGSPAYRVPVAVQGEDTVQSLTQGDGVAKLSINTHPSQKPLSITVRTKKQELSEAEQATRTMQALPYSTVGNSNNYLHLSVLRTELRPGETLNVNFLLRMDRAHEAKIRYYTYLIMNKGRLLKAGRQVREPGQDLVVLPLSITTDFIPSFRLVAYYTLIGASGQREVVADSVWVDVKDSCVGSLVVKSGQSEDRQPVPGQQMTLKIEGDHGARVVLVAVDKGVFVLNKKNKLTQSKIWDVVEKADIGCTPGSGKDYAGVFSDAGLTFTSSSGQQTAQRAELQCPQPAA
Chain of UniProt P01024 (P01024 749-1663, chain 2 of 2): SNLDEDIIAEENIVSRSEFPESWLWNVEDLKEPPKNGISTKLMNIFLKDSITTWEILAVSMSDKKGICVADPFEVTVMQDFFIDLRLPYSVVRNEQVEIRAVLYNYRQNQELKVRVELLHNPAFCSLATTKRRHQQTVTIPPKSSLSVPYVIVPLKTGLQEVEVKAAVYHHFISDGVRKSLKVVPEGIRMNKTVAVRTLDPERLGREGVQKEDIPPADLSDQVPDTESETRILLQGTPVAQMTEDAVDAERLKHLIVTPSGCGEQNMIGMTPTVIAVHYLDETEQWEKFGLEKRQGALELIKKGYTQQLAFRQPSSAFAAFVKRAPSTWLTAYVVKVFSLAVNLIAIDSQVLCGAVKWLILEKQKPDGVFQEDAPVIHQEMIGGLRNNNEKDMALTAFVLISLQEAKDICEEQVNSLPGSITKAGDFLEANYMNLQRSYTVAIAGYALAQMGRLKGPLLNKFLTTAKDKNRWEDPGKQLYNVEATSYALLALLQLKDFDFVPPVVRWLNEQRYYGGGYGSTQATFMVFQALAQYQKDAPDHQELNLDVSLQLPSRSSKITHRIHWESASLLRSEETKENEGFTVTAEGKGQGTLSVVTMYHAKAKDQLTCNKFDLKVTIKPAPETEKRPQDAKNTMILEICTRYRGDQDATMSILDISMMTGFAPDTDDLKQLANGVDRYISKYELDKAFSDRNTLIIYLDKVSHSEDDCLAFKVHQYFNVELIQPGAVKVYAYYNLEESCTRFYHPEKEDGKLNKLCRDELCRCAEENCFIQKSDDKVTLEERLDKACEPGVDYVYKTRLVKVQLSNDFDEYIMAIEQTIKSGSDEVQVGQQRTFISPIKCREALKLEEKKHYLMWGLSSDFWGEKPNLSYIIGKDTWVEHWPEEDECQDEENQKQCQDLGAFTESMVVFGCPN

percent immunofluorescence positive cells [1]	percent immunofluorescence positive cells [2]	percent immunofluorescence positive cells [3]	percent immunofluorescence positive cells [4]	percent immunofluorescence positive cells [5]	percent immunofluorescence positive cells [6]	percent rosette-forming cells [7]	percent cells binding [8]	percent cells binding [9]	percent immunofluorescence positive cells [9]	percent immunofluorescence positive cells [8]	Substance
95%	5%	89%	93%	2%	5%	–	–	–	–	–	factor B (natural protein)
–	–	–	–	–	–	100% and 98%	90%	100%	98%	–	human C3b (from UniProt P01024 23-667; P01024 749-1663) (domain or fragment)
–	–	–	–	–	–	–	90%	100%	100%	100%	human complement component C3 (from UniProt P01024 23-667; P01024 672-1663) (natural protein)
